Values quoted from earlier work, collected in patent US11878064B2, “Nanoparticle/peptide method of blocking potassium channels” (US Department of the Navy, priority 2019, dated 2024).
Where no end group is shown, it is not given here.

Molecular target: T1, ROMK1 channels (Homo sapiens, UniProt P48048)
T1 sequence (P48048 1-391): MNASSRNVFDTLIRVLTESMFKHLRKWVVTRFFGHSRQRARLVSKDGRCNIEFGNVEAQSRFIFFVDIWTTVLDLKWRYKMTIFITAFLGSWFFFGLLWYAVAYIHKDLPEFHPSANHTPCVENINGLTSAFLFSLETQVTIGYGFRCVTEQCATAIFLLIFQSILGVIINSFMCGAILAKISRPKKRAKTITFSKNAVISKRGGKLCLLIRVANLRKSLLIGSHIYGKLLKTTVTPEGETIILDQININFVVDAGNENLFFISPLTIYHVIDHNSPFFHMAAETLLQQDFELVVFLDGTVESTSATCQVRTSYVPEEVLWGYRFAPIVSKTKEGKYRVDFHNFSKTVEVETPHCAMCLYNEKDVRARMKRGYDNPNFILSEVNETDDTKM
Conditions: read-out: binding affinity

## tertiapin (ALCNCNRIIIPHMCWKKCGKK; ends and bridges not checked; cysteine pairing not given here; UniProt P56587 1-21, looked up) [TPN]
  Kd: ~2 nM
